In article PMC12217647, “Mid‐Regional Proadrenomedullin Can Be Reliably Measured in Cerebrospinal Fluid to Improve Diagnosis of Central Nervous System Diseases” (Journal of Clinical Laboratory Analysis, 2025):
“And” between values parts separate entries of the source, which are not always exact repeats. Identical values can stand only once.

Tests used:
[1] = MR‐proADM stability in CSF at room temperature (B.R.A.H.M.S. MR‐proADM KRYPTOR fluoroimmunoassay); format: in vitro ADME, human
Description: (§1) MR‐proADM concentrations were measured in CSF using the B.R.A.H.M.S. MR‐proADM fluoroimmunoassay on the Brahms Kryptor Gold Analyzer (THERMO […], Hennigsdorf, Germany), which is a fully automated homogeneous phase random access platform. The system uses the TRACE (Time‐Resolved Amplified Cryptate Emission) technology to measure the fluorescence signal emitted by an immunocomplex. MR‐proADM results are expressed in nmol/L. The declared linearity in plasma EDTA samples ranges from 0.21 to 100 nmol/L, with a maximum bias of ±20%. The manufacturer's reference range for EDTA plasma samples is < 0.56 nmol/L, corresponding to the 97.5th percentile of a control series, which disclosed a median value of 0.38 nmol/L. The Limit of Detection (LoD) is 0.09 nmol/L, while the Limit of Quantitation (LoQ) is 0.21 nmol/L (IFU_B.R.A.H.M.S. MR‐proADM KRYPTOR assay; 07 April 2022; Thermo Scientific, Hennigsdorf, Germany). This MR‐proADM immunoassay is currently certified only for plasma‐EDTA blood samples, and the manufacturer recommends immediate centrifugation to preserve molecular stability at room temperature (18°C–25°C) or at 2°C–8°C up to 24 h. Afterwards, samples should be aliquoted and frozen at −20°C or below. Plasma samples can be kept frozen up to 14 days, and the analyte is considered stable for up to 4 freeze/thaw cycles.
(§2) According to the recommendations in plasma, MR‐proADM was measured in clear CSF samples after centrifugation to avoid interference by cells or other microparticles. Bloody CSF samples were discarded. The first step was aimed at assessing MR‐proADM stability in CSF as a function of different storage temperatures and storage time after collection. To test room temperature stability in CSF, we measured MR‐proADM in 10 fresh samples (T0) and after 12, 24, and 48 h (T1, T2, T3) on the bench (25°C). To test recovery after storage at −20°C, we measured MR‐proADM concentration in 29 CSF samples stored frozen for less than 15, 16 to 60, and more than 60 days. Finally, to test recovery after storage at −80°C, we measured MR‐proADM concentration in 25 CSF samples before and after a variable period of storage at −80°C. The second step of our study was to evaluate the analytical performance of the B.R.A.H.M.S. MR‐proADM method using CSF samples. For this purpose, we evaluated the repeatability and the within‐laboratory precision of this assay. Due to the small amount of CSF volume obtained from each residual sample, 58 CSF samples were pooled in 3 subgroups according to their MR‐proADM values, thus creating 3 pools of about 5 mL volume each, characterized by low, medium, and high MR‐proADM concentration. These pools were finally stored at −20°C.
(§3) To assess the difference between measures of MR‐proADM in fresh samples and after storage at room temperature, at −20°C, and at −80°C, we used the Wilcoxon matched‐paired T test, considering significant p < 0.05.

[2] = MR‐proADM stability in CSF samples stored at −20°C; format: in vitro ADME, human; settings: for Mean difference pre and post freezing: mean of samples
Description: as §1
as §2, with “−20°C. […]” for “−20°C.”

[3] = MR‐proADM stability in CSF samples stored at −80°C; format: in vitro ADME, human
Description: as §1, §2, §3

[4] = plasma‐EDTA, ref IFU_B.R.A.H.M.S. MR‐proADM KRYPTOR assay, 07 April 2022, cited from earlier work
Description: MR‐proADM concentrations were measured in CSF using the B.R.A.H.M.S. MR‐proADM fluoroimmunoassay on the Brahms Kryptor Gold Analyzer (THERMO […], Hennigsdorf, Germany), which is a fully automated homogeneous phase random access platform. The system uses the TRACE (Time‐Resolved Amplified Cryptate Emission) technology to measure the fluorescence signal emitted by an immunocomplex. MR‐proADM results are expressed in nmol/L. The declared linearity in plasma EDTA samples ranges from 0.21 to 100 nmol/L, with a maximum bias of ±20%. The manufacturer's reference range for EDTA plasma samples i ...

[5] = body fluids; statement of the introduction; cited from earlier work

## Mid‐regional proADM (ELRMSSSYPTGLADVKAGPAQTLIRPQDMKGASRSPEDSSPDAARIRV; MR-proADM; UniProt P35318 45-92, looked up, fragment) [MR‐proADM]
[1]; CSF on the bench at room temperature (25°C) for 12 h, individual samples S1–S10, one line per sample, p = 0.2918 vs fresh
  MR‐proADM concentration, After 12 h: 0.45 nmol/L and 2.67 nmol/L and 0.80 nmol/L and 1.11 nmol/L and 1.23 nmol/L and 0.91 nmol/L and 1.07 nmol/L and 0.96 nmol/L and 1.63 nmol/L
[1]; CSF on the bench at room temperature (25°C) for 24 h, individual samples S1–S10, one line per sample, p = 0.6760 vs fresh
  MR‐proADM concentration, After 24 h: 0.51 nmol/L and 2.61 nmol/L and 0.80 nmol/L and 1.15 nmol/L and 1.25 nmol/L and 0.93 nmol/L and 1.09 nmol/L and 0.92 nmol/L and 1.67 nmol/L
[1]; CSF on the bench at room temperature (25°C) for 48 h, individual samples S1–S10, one line per sample, p = 0.1515 vs fresh
  MR‐proADM concentration, After 48 h: 0.45 nmol/L and 2.74 nmol/L and 0.78 nmol/L and 1.14 nmol/L and 1.27 nmol/L and 0.93 nmol/L and 1.12 nmol/L and 0.97 nmol/L and 0.99 nmol/L and 1.64 nmol/L
[1]; CSF, 25°C, 12, 24 and 48 h, n = 10 samples, no significant difference from fresh
  Stability in CSF samples stored at room temperature (in words): highly stable
[1]; CSF, room temperature (25°C)
  Storage time at room temperature over which MR‐proADM remains highly stable in CSF: ≤ 48 h
[1]; T0 baseline, clear centrifuged CSF, 10 individual samples S1–S10, one line per sample, TRACE fluoroimmunoassay, Kryptor
  MR‐proADM concentration, Fresh: 0.45 nmol/L and 2.67 nmol/L and 0.79 nmol/L and 1.15 nmol/L and 1.23 nmol/L and 0.92 nmol/L and 1.07 nmol/L and 0.94 nmol/L and 0.98 nmol/L and 1.65 nmol/L
[2]; CSF stored at −20°C for less than 15 days
  Mean difference pre and post freezing: 14.2%
[2]; CSF stored at −20°C for more than 60 days
  Mean difference pre and post freezing: 18.6%
[2]; CSF stored at −20°C from 16 to 60 days
  Mean difference pre and post freezing: 15.9%
[2]; CSF stored at −20°C, worst cases
  Percentage reduction in some samples: up to 50%
[3]; 25 CSF samples, variable storage time at −80°C
  Stability in CSF samples stored at −80°C (in words): quite stable
[3]; CSF stored at −80°C, 25 samples
  Decrement, half of the samples: ≤ 10%
[3]; CSF stored at −80°C, p < 0.001 vs fresh
  Loss of recovery / decrement versus fresh, majority of cases: less than 10%
[3]; CSF, −80°C
  Storage time at −80°C with very good stability: at least 24 months
[3]; baseline before storage at −80°C, 25 individual CSF samples S1–S25, one line per sample
  MR‐proADM concentration, Fresh: 0.55 nmol/L and 0.56 nmol/L and 0.77 nmol/L and 0.51 nmol/L and 0.53 nmol/L and 0.59 nmol/L and 0.66 nmol/L and 0.70 nmol/L and 0.89 nmol/L and 1.00 nmol/L and 0.43 nmol/L and 0.57 nmol/L and 0.64 nmol/L and 0.69 nmol/L and 0.75 nmol/L and 0.62 nmol/L and 0.71 nmol/L and 0.73 nmol/L and 0.79 nmol/L and 0.54 nmol/L
[4]; room temperature (18°C–25°C) or 2°C–8°C
  Time of molecular stability after centrifugation: up to 24 h
[4]; −20°C or below
  Time plasma samples can be kept frozen: up to 14 days
[4]
  Freeze/thaw cycles over which the analyte is considered stable: up to 4 freeze/thaw cycles
[5]
  half‐life compared with ADM (in words): longer half‐life
